Source: the domain aggregation screens of Martell et al. (2025)

Assay: soluble fraction after stress (log2 fold change); higher = more stays soluble; pooled small domains, quantitative proteomics
Conditions: stress: pH 4
In short: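 Custom libraries of small protein domains were pooled and exposed to pH 4. High-throughput quantitative proteomics then measured the log2 fold change in the amount of each domain still soluble, with higher values meaning more stayed soluble. This soluble-fraction fold change stands for aggregation propensity.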

Sequence | soluble fraction (log2)
HMETIGKRVRAARQELGLTMKQLHEQTGLSTGNISDIENDRNTPSVSSLVALGRALRRSLDWLLTGEE | -0.555
HMAPETALQILEQIQINPKVTMTDLANLTGYSRRWVAQTMKQLQELNVIKRVGSTKTGYWEIIA | -0.142
HMNDPFVILGVSKDASQSEILEAYKQKRAYYQERVFDEGDEGAQAARMLTQLDDAYQQAMELSHES | 0.17
HMGSVDMVYGDHKINSEHMDLSFKNQTAVLYDKVNYKSSLSMLSADKILVNFLNKYTKIEMNDENNNILIQ | -0.128
HMEFNDLNDDEKAILHIMYNTGEKMTTALAARITNRGRNFASKLLKSLVKKEILEWHGTSKQDRNQYYTLA | -0.337
HMNVVSIEHIRTHLQNHLSLIGRSIEESFNEAKVIAFVASLFLTHRGYASVSQDMGTNGEIYLQDLW | -0.0149
HMGEVVSAPMPGTILSIKVSQGQTVKRGQVLLILEAMKMENEIVAPRDGVVVQISTTQGASVETGAPLVVL | -0.118
HMLPDHAPITMRQLAMLHVAKNKLDLTDEDYRSLLLLYGGVESSKQLNQEGLRRVLDRFKELGFEP | -0.258
HMTFEPVYDENSRILILGTFPSVKSREQQFYYGHPQNRFWKLLAALTGWKVPKTISEKKELLLQNGIA | -0.665
HMAEVPDLRNKTQQEAEAELTNHNLKLGNVTEEYSATVEAGRVISQSTSYGTKVLEGSSVDITISKGPEPT | 0.156
HMVSDAWITGKVKSQLLADDVTPGMKIDVDTEDRIVSLKGTVPSLTARNEAIRIASHTKGVRTVDADELIV | -0.0247
HMIVPPAIPFRALGIFGPRDRPIVTFEDGPRLINAREGDVLDGRFILRRVGRESVDFAFVGLPPEITRRIP | -0.608
HMKELLDRIFLHETMRRVSQDATITFSKKVYEVPQKFIGRQVTVQYDPEDLSRVYVKDLNFPEPVMVYPVQ | 0.0825
HMEDIASESVKRVIRKIIDDEDKKSPLSDQAIVEILAKGEGIVIARRTVAKYREMMGILPSSKRKKH | 0.0959
HMTSAPHHIAAVLRDAIYRGVLEEGGPLHQARIAQSLGVSPIPLREALRLLETEGLVEFRGYRGAFVT | -0.8
HMEEITLQEQINFIKDMLLNKEKFHLTDVITKKSKIYVVSLFLALLELIRLEEINFRQTQNFSDIIISRI | -0.381
HMTTQTTKYVNTTAGLNVRTGPSTSYAKIVTLSYGQSVNVLSTSNGWSKINYNGSTGYVSSQYLQSTKPS | 0.0265
HMTTTYEINDEMLKPLILEIFNKSKQRFGSTKIAPVLKREGYTASIAKVKTLMNELGIKPVNA | 0.206
HMKEIATKSELTYFIQRLLDLLEETNFFNPEERKKAMINHIEAIFRRNNLTLQELNMLHGIITSITR | -1.38
HMELSESLENYLVVIYEAHLRNEIARIKDMTASLSVKHTSAIDAIKKLEDLGIVNYEKRGFVKLTQSGIEK | -0.177
HMTDIDATSIERAVAKRRHFFLSNIQDLTMKMARRLIEKDLGLAPKHLDAAPFKTRITELVDAVIALGD | -0.484
HMHPARITATVRVGEGDLVDIEREAELGGPIHSKGVMILSSFLGARYARTVPLSLSASLVFEQSY | 0.0113
HMSELSGSQLKAIREEKHIPLEQVASATRIRLSLLEALEMDEYAELGSRTQARGFLKLYADFLGVPFEA | 0.00575
HMRKLHFVMSEIYEDHPWIGSKLQDVFLPKDIRVVLVERDSKQFMPNGQTLFELGDRLTLSALHYDPA | -2.22
HMGPESKLTDAIKDYIYALYENLKGKSKFRNTIIEEVKKLYGVDISRESIRRVVNQKTDAETTENDDDEKA | 0.197
HMFVNADEIAKGLSPFNPSSVAIEAGRLMLKRIGELLSAGVSFSVETTLSTRSYINLIQQAQNQGYSVSL | ≥ 0.43
HMTSGPAWPALSAQQRSVLAPLQRDWHTIDAARKAKWLEVAARFPSMPAEERQRVQERMAEWA | -0.0144
HMKEQIKVPDLSNKTPEEAKKELNTLGLGARKGGEESSDTVEEGLITRQEPAAGEQVDKNTQILFYVSTGK | 0.0545

Sequence | soluble fraction (log2)
HMNDMPELLSIKEASQWATEYLNKNVTTSNIAYLIQYGRIRKIGNNGSTQVLKDDLVKYYKDQK | -0.0394
HMLTLAVPNSINMRLDKYLSENIDYLSRSKIQGLINDGKVTINGENEKSSYKLNGDESIVIYYEE | -0.775
HMNLGAHVYWRNHRAYGDFREYEDVGGGREALALPGSTWGTKDPRVAQALFAARLTEFQEARVGR | -0.148
HMRGETSYANDIIKRLKQANLIVVEGTLYPLLNRLKKDGLLHYEWRESQQGPPRKYYGLTEEGEA | 0.0328
HMKHVENLSDEKTIQAIQENPYMQYLLGLSKFTEKPVFVPELFVLIRKRLDQDFFNMLTLILAEADG | -0.778
HMSNEWIEISAKTVDDAINEGLIRLGTTTDKMDVEVLEKESAGFLGFIGKHDAKIRVRFKEV | -0.608
HMEFEYFQLRDHLYNLIMHPDKEKLKKDPDYLKLMSMAFSLLEDQNVGKDILEIAIKSIENFK | -0.674
HMRSSALDEIPGIGKQRKKNLLVHFTSVAKIKEASLDEIAAVPGMNRKAALVVVEFFQNQERE | 0.158
HMPGLDTTILSDILSLKKELPSRSAAKILIMLILAKRIEEGSLNLRTINRILNQYGYTRESLL | 0.327
HMEKILSYKALMNDAGKRIDQFLANNEKDISRTRIKSLILEGSLKLDNNIINDPSYKIKENDVFTLFIPEA | 0.0775
HMAQKQLYIAGTDYTKNSTSQLVLAYFPAKPSSIKIFFDGIYQNKDKWSLFGKTIIFGLPISSNAVEVHYE | -0.201
HMENVLFVNVLSMTVRELAEMMKIPVNKIIQDSFSKGIMMNPNQRLEYDNFAELAKKYGITVKI | -0.691
HMNGVFIMHTPDGKVLRTEEGEEAVITLFNWSGQLLWSKTSLGQLPLPEGTQGVLQVQYKSGDQHTIKT | -0.425
HMETSVDEVYKKIQAYIEAEDKHKPLSDQKLAEQLQSDGLKVSRRTVAKYREKLNIASSSKRKR | 0.379
HMDLQAAWLQTVRHLLAHTEDVGDRFAEEARRIHYGEEPHRGIRGQATPEERLALREEGIETMSIPV | -0.204
HMNTEEVGSYLKKLRLEHSFTQKELAGKLYITHQAVSNWEKGKALPDIGILSQLGDIYGISIDNLLLK | -0.551
HMKEYPEVITTSRLNVRTGPGTGYQRLGTLDQNLRVLVLTRQQGWAQIRGMLNGETVIGWVNDYYLQAID | -0.259
HMWDEMKDQKLVEALLLLREDERKLIYQHVFEERTFDDISRINGLPPYKVKGIYYYAIRKIRKWMG | -0.425
HMSVKLYPNPTRSVTTFATDVDKWYLYDNQGKLVSEGNTKTIDVTAFPVGIYFVKTIKGNNSTFVKLIV | -0.183
HMKDITMPNVYGLTLEMAEQTLKQSELSIFKAMKINSDTVEEGKVIYTDPKANSIVSGDQEITIYVSDGP | 0.22
HMIGVIVDEVDPDSSLKSGDIITEVNREVILNIDDFVGLVEQIQKTGRSSLLLKILRDKKSLWVTIQFV | 0.22
HMRGAARRDRAVGERAVSKDTILDATRALLRKGSALEIRAIDIAEESGLSRQTVFQYYPVIRLIFFELSD | 0.155
HMNDNTAINEFKKMVFTRMVHLQIDNAELSKLSGVTNSKILALKYGNSNTLKLGDIVKVAKTLNINLNDL | 0.094
HMKVSDLIGMLGRVTGELAPTGIVLVGNKTWTAISEDASVIASGEQVQVRSVAGLILTVSHQVD | -0.954
HMKKILITGNSGYIGSHLSKMLENDYEVHGLDIRQPQHPVAKFYEQDINRPINIEEEYDAVIHLAALV | -0.104
HMENTGFKDKKGNYIFDGDIVKDILGNIMKVEFKHFKWQLIPLNKTAFNMPMVDWLDLETETLNAEIIGN | -1.69
HMPANLTPDYFKAEQWYRSASTNEEKMLALEQMLAVMPKHKGTEHLQADLKRKLSQLKDASAQ | ≥ 0.43
